{"source": "paper PMC7595577", "binders": {"B1": {"name": "QA255.072 IgG (antibody, V domains shown)", "VH": "QVQLIQSGAEVRKPGSSVKVSCKAVGATFHNYAVSWVRQAPGQGLEWMGGIIPIRGLANQEPRFQGRLTITADESTGAIYMDLSSLRSDDSAVYYCARHYDDTSGFFYGAFDIWGQGTTLIVSS", "VL": "DIQMTQSPPSLSASVGDRVTISCRASQGIGNSVAWYQQKPGKAPKLLILAASSLRSGVPSRFSGSMSGTDFTLTISGLQPEDVATYYCQKYNSAPWTFGQGTKVEIK"}}, "biological_target": "biotinylated CD16 (UniProt P08637)", "assay": "BLI", "data": [{"binder": "B1", "values": [{"measurement": "Kd", "result": 4.9, "unit": "µM"}]}]}
